The text below walks through data of US20210301005A1 (Genentech, published 2021).

Test [1] deals with T1, human TGFβ2, mature receptor-binding domain (human, UniProt P09858 303-414 (pig entry), The mature TGFβ2 is a disulfide-linked homodimer of this 112-residue chain. The 4A11 epitope spans both monomers (p-1207).).
T1 construct: Peprotech; also called TGFb2
T1 sequence: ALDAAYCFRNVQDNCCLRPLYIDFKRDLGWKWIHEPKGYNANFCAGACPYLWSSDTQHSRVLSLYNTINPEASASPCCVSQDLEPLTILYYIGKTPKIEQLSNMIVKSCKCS
Nature of the test: BIAcore T200.

For test [2], the target named is T2, human TGFβ3, mature dimeric form (human, UniProt P10600 301-412).
T2 sequence: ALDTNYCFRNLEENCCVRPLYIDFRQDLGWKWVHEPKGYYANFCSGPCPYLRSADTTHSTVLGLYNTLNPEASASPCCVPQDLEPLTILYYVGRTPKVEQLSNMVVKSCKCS
The test is described as follows: cell-based or functional assay.

Test [3] deals with T3, human TGFβ1, mature receptor-binding domain (human, UniProt P01137 279-390). The test is described as follows: cell-based or functional assay.
For test [4], the target named is T1, human TGFβ2, mature receptor-binding …. Nature of the test: cell-based or functional assay.
Test [5] has the same target. Nature of the test: cell-based or functional assay. This is another data set of the same source.
The target of test [6] is T2, human TGFβ3, mature dimeric form. Nature of the test: cell-based or functional assay. The source holds these as a separate data set.
Test [7] shares this target. Nature of the test: BIAcore T200. In general terms: In SPR one partner is held on a chip, and binding of the other changes the refractive index at the surface.
Test [8] has the same target. The test is described as follows: BIAcore T200. As to the method: (§1) For binding affinity determinations of all humanized 2A10 antibodies, Surface Plasmon Resonance (SPR) measurement with a BIAcore™-T200 instrument was used. Briefly, series S CM5 biosensor chip with protein A was first applied to capture each humanized 2A10 variant to achieve approximately 100 response units (RU) on each flow cell, following by injection of 3-fold serial dilutions of human TGFβ1, TGFβ2 or TGFβ3 (0.02 nM to 5 nM) in HBS-EP buffer (0.01M HEPES pH 7.4, 0.15M NaCl, 3 mM EDTA and 0.05% v/v surfactant P20) at 25° C. with a flow rate of 50 μl/min for kinetics measurement. Association rates (ko.) and dissociation rates (koff) were calculated using a simple one-to-one Langmuir binding model (BIAcore T200 evaluation software version 2.0) to determine the equilibrium dissociation constant (KD), which was calculated as the ratio koff/kₒₙ.
The source holds these as a separate data set.

For test [9], the target named is T1, human TGFβ2, mature receptor-binding …. The test is described as follows: BIAcore T200. As for the experimental part: as §1
The source holds these as a separate data set.

Test [10] addresses T2, human TGFβ3, mature dimeric form. Nature of the test: cell-based or functional assay. The source holds these as a separate data set.
Test [11] concerns the target T3, human TGFβ1, mature receptor-binding …. Nature of the test: cell-based or functional assay. This is another data set of the same source.
Test [12] has as its target T1, human TGFβ2, mature receptor-binding …. The test is described as follows: cell-based or functional assay. This is another data set of the same source.
The target in test [13] is T2, human TGFβ3, mature dimeric form. Nature of the test: BIAcore T200. As to the method: as §1
(§2) Binding affinity determinations of all humanized 4A11 antibodies were performed using SPR measurement with a BIAcore™-T200 instrument, as described above in Example 6 ([…]).
This is another data set of the same source.

For test [14], the target named is T1, human TGFβ2, mature receptor-binding …. The test is described as follows: BIAcore T200. As for the experimental part: as §1, §2
The source holds these as a separate data set.

Test [15] has as its target T2, human TGFβ3, mature dimeric form. The test is described as follows: cell-based or functional assay. This is another data set of the same source.
Test [16] concerns the target T3, human TGFβ1, mature receptor-binding …. Nature of the test: cell-based or functional assay. This is another data set of the same source.
For test [17], the target named is T1, human TGFβ2, mature receptor-binding …. Nature of the test: cell-based or functional assay. This is another data set of the same source.
Test [18] concerns the target T2, human TGFβ3, mature dimeric form. The test is described as follows: cell-based or functional assay. This is another data set of the same source.
Test [19] concerns the target T3, human TGFβ1, mature receptor-binding …. The test is described as follows: cell-based or functional assay. The source holds these as a separate data set.
For test [20], the target named is T1, human TGFβ2, mature receptor-binding …. Nature of the test: cell-based or functional assay. The source holds these as a separate data set.
Test [21] concerns the target T2, human TGFβ3, mature dimeric form. Nature of the test: BIAcore T200. As to the method:
as §1, §2
The source holds these as a separate data set.

In test [22] the target is T1, human TGFβ2, mature receptor-binding …. Nature of the test: BIAcore T200. As for the experimental part: as §1, §2
This is another data set of the same source.

One may read the Kd as a measure of binding affinity in units of concentration. A high value points to lower affinity.

Residue numbers refer to the chain shown, from its start. Where two headings read alike, the source gives them in different places.

T3 sequence (P01137 279-390 limits assumed): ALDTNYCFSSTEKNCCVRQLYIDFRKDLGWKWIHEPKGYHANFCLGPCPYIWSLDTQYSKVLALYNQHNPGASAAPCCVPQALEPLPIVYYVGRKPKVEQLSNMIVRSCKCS

B1: h6F12.v3 (antibody, human IgG1, kappa, N297G, V domains shown)
VH: EVTLKESGPVLVKPTETLTLTCTVSGFSLTTYNVHWVRQPPGKALEWMGLIWNTGGTRYNSALKSRLTISKDTSKSQVVLTMTNMDPVDTATYYCARDPVPNKWHFDFWGPGTLVTVSS
VL: EIVMTQSPATLSVSPGERATLSCLASEDIYSNLAWYQQKPGQSPRLLIYDARSLQDGVPARFSGSESGPEYTLTISSLQSEDFAVYFCQQHHAYPFTFGQGTKVEIKR
On to B1, for which the Kd in test [1] is at most 0.0005 nM. Also, the entries for the “HEKBlue TGFβ blocking IC50” value in [2], in test [3] and in test [4] were over 200 nM, over 200 nM and 0.005 nM, respectively.

B2: h6F12.v2 (antibody, human IgG1, kappa, N297G, V domains shown)
VH: EVQLQESGPGLVKPSETLSLTCTVSGFSLTTYNVHWVRQPPGKGLEWMGLIWNTGGTRYNSALKSRLTISKDTSKSQVSLKLSSVTAADTAVYYCARDPVPNKWHFDFWGPGTLVTVSS
VL: DIQMTQSPSTLSASVGDRVTITCLASEDIYSNLAWYQQKPGKSPKLLIYDARSLQDGVPSRFSGSESGPEYTLTISSLQPDDFATYFCQQHHAYPFTFGQGTKVEIKR
In [1], B2 registered a dissociation constant (Kd) of at most 0.0005 nM. Besides, the “fold drop in blocking against r6F12” value in test [5] was 2.5 to 5 fold. The “HEKBlue TGFβ blocking IC50” value in test [2] was over 200 nM; in test [3] it was over 200 nM; in test [4], 0.01 nM.

B3: h6F12.v4 (antibody, human IgG1, kappa, N297G, V domains shown)
VH: B2 VH
VL: B1 VL
In the case of B3, in test [1], the Kd is at most 0.0005 nM. Besides, the “fold drop in blocking against r6F12” value in [5] lay in the range of 2.5 to 5 fold. Also, the “HEKBlue TGFβ blocking IC50” value is over 200 nM in test [2], over 200 nM in [3] and 0.02 nM in test [4].

B4: h2A10.v2.5 (antibody, human IgG1, kappa, N297G, V domains shown)
VH: EVQLLESGGGLVQPGGSLRLSCAASGFDFNSYGMSWVRQAPGKGLEWVADIVSKTYNYTTYYSDSVKDRFTISRDDSKSTVYLQMNSLRAEDTAVYYCTVAPGGSFDYWGQGTLVTVSS
VL: DIQLTQSPSSLSASVGDRVTITCRASQSVSISRFNLMHWYQHKPGKQPKLLIYRASNLASGIPSRFSGSGSGTDFTLTISSLQPEDFATYYCQHSRESPWTFGGGTKVEIKR
On to B4, for which, in test [6], the “fold loss of TGFβ3 blocking against h2A10.v2” value was over 10 fold. For the same molecule, the “fold drop in TGFβ3 binding against h2A10.v2” value in [7] was determined as 385 fold. The Kd stood at 0.5 nM in [8] and 2.82 nM in test [9]. In addition, the “HEKBlue TGFβ blocking IC50” value in test [10] was 27.4 nM; in [11], over 200 nM; in [12] it was over 200 nM.

B5: h2A10.v2.7 (antibody, human IgG1, kappa, N297G, V domains shown)
VH: B4 VH with W47L, D76N
VL: B4 VL
Turning to B5, the “fold loss of TGFβ3 blocking against h2A10.v2” value in test [6] is over 10 fold. Further, the values for the Kd in [8] and in test [9] were 0.0032 nM and 0.921 nM, respectively. In addition, the entries for the “HEKBlue TGFβ blocking IC50” value in test [10], in test [11] and in test [12] were 0.12 nM, over 200 nM and over 200 nM, respectively.

B6: h4A11.v7.16 (antibody, human IgG1, kappa, N297G, V domains shown)
VH: EVQLQESGPGLVKPSETLSLTCTVTGFSLSSYTVNWIRQPAGKGLEWIGYISYGGSAYYASWANGRVTISKDTSKNQFSLKLSSVTAADTAVYFCARHMQVGGAPTGSMAAFDPWGQGTLVTVSS
VL: EIVLTQSPGTLSLSPGERATLSCQSSQSVYNNNYLSWFQQKPGQAPRLLIYGASTLTSGIPDRFSGSGSGTDFTLTISRLEPEDFAVYYCAGGYSGSSDKYAFGGGTKVEIKR
Consider B6, for which the results for the Kd in [13] and in [14] were 0.0066 nM and 0.0049 nM, respectively. Besides, the “HEKBlue TGFβ blocking IC50” value in test [15] was 0.13 nM; in test [16] it was over 200 nM; in test [17], 0.09 nM.

B7: h4A11.v8 (antibody, V domains shown)
VH: B6 VH with V2Q, I37V, V67F, T73S, F78V, Q117P
VL: DAVLTQTPLSSPVTLGQPASISCQSSQSVYNNNYLSWFQQRPGQPPRLLIYGASTLTSGVPDRFSGSGAGTDFTLKISRVEAEDVGVYYCAGGYSGSSDKYAFGGGTKVEIK
As to B7, the “HEKBlue TGFβ blocking IC50” value in test [18] was 0.66 nM; in test [19], over 200 nM; in test [20], over 200 nM. In addition, the Kd in [21] was 0.0141 nM; in [22], 0.0082 nM.

B8: h4A11.v7.19 (antibody, human IgG1, kappa, N297G, V domains shown)
VH: EVQLQESGPGLVKPSETLSLTCTVTGFSLSSYTVNWIRQPAGKGLEWIGYISYGGSAYYASWANGRVTISKDTSQVSLKLSSVTAADTAVYFCARHMQVGGAPTGSMAAFDPWGQGTLVTVSS
VL: B6 VL
B8: the Kd in test [13] was at most 0.0013 nM; in test [14], 0.001 nM. Moreover, the “HEKBlue TGFβ blocking IC50” value in test [15] was 0.09 nM; in test [16], over 200 nM; in test [17], 0.05 nM.

B9: h4A11.v7.18 (antibody, human IgG1, kappa, N297G, V domains shown)
VH: B6 VH with F78V
VL: B6 VL
In the case of B9, the Kd was determined as 0.0046 nM in test [13] and 0.0011 nM in test [14]. The “HEKBlue TGFβ blocking IC50” value in [15] was 0.11 nM; in [16], over 200 nM; in [17], 0.09 nM.

B10: h4A11.v7.17 (antibody, human IgG1, kappa, N297G, V domains shown)
VH: B6 VH with F78V, F94Y
VL: B6 VL
B10: the values for the equilibrium dissociation constant (Kd) in [13] and in [14] were 0.0032 nM and 0.0013 nM, respectively. Further, the “HEKBlue TGFβ blocking IC50” value is 0.17 nM in test [15], over 200 nM in test [16] and 0.16 nM in test [17].
